Reference: the Human Domainome abundance scans (Beltran et al. 2025)

B1: Max-interacting protein 1, residues 70 to 120; numbered along this chain, P50539 (parent)
chain: STHNELEKNRRAHLRLCLERLKVLIPLGPDCTRHTTLGLLNKAKAHIKKLE

Variants of: B1
Experiment: abundance fitness (aPCA) (normalised: wild type 0, dead -1); higher = more abundant; growth selection in yeast, the domain comes from the species named
Details: Homo sapiens

Abundance fitness: each site, then its substitutions
L16: M -0.001; R 0.165; H -0.55; I -0.133; S 0.218; F -0.207; P -0.126; A -0.05; C -0.247; K 0.022; N -0.069; W 0.07; Y -0.241; E 0.102; V -0.058; G 0.274; Q 0.16; D -0.037
R20: T -0.377; H -0.726; V -0.797; N -0.335; I -1.11; P -0.753; D -1.17; Q -0.405; S -0.576; W -0.912; M -1; G -0.817; A -0.677; E -0.929; Y -0.884; F -0.971
K8: Y -0.619; L -0.232; Q -0.492; T -0.377; I -0.536; G -0.043; N -0.328; V -0.338; H -0.205; M -0.511; P -0.451; W -0.444; F -0.236; R -0.353
H13: M -0.156; A -0.515; V -0.339; N 0.093; C -0.509; S -0.085; K 0.26; G 0.124; P 0.064; T -0.353; D -0.604; Q -0.086; I -0.447; F -0.076; L 0.02; Y -0.04
K22: T -0.835; I -1.21; R -0.121; G -0.611; D -0.83; M -0.753; F -0.759; Q -1.02; C -0.871; A -0.903; H -0.651; N -0.572; W -1.08; P -0.757; E -0.885; S -0.536; L -0.639; Y -0.884; V -0.926
R10: H -0.068; S -0.217; F -0.164; P 0.298; T 0.309; V -0.101; I -0.289; L -0.076; C -0.071; Q -0.219; W 0.163; E -0.71; D -0.545; N -0.18; G -0.322; A 0.038
I25: G -0.26; K -0.995; S -0.39; E -0.384; V -0.062; M -0.228; Q -0.561; A -0.584; C 0.045; F -0.141; L -0.172; R -0.521; H -0.744; T -0.562; Y -0.309; P -0.334; N 0.169; W 0.319; D -0.852
G28: S 0.003; C -0.155; F 0.069; V 0.273; P -0.015; Q -0.092; M 0.074; A -0.284; L -0.142; E -0.38; K 0.362; R 0.122; I 0.402; H -0.147
P26: Q 0.144; E -0.138; G 0.278; N 0.063; D -0.327; F -0.557; C -0.157; S 0.193; T 0.369; M 0.074; W -0.525; V -0.628; L -0.326; Y -0.626; H 0.017; I -1.18; K 0.441
V23: T 0.274; N 0.313; G 0.355; M 0.064; I -0.218; R 0.316; L 0.128; C 0.287; H 0.455; S 0.317; K 0.547; F -0.191; Y -0.062; Q 0.123; E 0.096; D -0.127; A 0.488
C17: N -0.536
